Data on four molecules can be found in US20250297032A1 (CONCEPT TO MEDICINE BIOTECH, published 2025).

The target of test [1] is T1, human FAPα-His tag (Sino biological) (human, UniProt Q12884 26-760).
T1 construct: Bought protein; also called human FAPα-His protein; not shown: His tag
T1 sequence (looked up): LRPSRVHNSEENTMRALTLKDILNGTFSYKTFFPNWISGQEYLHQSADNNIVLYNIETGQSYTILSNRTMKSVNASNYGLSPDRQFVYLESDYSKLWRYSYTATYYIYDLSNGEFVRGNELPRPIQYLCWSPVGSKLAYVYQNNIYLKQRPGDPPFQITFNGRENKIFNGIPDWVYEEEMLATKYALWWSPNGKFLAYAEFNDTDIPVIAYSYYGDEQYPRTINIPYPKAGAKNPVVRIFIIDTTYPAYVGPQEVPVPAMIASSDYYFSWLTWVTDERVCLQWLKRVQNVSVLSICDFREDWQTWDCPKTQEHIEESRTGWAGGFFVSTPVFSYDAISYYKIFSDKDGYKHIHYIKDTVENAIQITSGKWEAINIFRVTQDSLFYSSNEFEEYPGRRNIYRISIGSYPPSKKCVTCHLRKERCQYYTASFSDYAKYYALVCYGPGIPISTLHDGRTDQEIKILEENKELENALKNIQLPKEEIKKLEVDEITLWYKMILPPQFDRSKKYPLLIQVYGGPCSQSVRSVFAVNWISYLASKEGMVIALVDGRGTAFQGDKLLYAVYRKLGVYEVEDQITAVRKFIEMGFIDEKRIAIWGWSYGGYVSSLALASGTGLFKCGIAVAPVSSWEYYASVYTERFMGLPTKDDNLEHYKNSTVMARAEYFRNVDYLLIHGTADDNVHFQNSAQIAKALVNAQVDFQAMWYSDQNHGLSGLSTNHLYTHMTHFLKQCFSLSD
Nature of the test: competitive ELISA on coated human FAPα; competitor (detected): FAP-I37-Bio. How it is done:
Competitive ELISA was carried out to classify the FAPα mAbs based on the binding epitope to human FAPα.
(§1) Briefly, microtiter plates were coated with human FAPα proteins at 0.5 μg/ml in PBS, 100 μl/well at 4° C. overnight, then blocked with 150 μl/well of 1% BSA. Serial dilutions of chimeric antibodies as well as biotin-conjugated reference mAb were added to each well and incubated for 1 hour at RT. The plates were washed with PBS/Tween and then incubate with streptavidin-HRP for 15 mins at RT. After washing, the plates were developed with TMB substrate and analyzed by spectrophotometer at OD 450 nm. According to the competition ability to reference mAbs (Benchmark, or “BMK”), all tested FAPα mAbs binds to the similar epitope as shown in Table 5.

For test [2], the target named is T1, human FAPα-His tag (Sino biological). Nature of the test: competitive ELISA on coated human FAPα; competitor (detected): FAP-J40-Bio. How it is done: as §1
Test [3] addresses T2, human FAPα on CHO-K1-hFAPα cells (human, UniProt Q12884 1-760).
T2 construct: whole, on cells; also called cell-surface FAPα
T2 sequence (looked up): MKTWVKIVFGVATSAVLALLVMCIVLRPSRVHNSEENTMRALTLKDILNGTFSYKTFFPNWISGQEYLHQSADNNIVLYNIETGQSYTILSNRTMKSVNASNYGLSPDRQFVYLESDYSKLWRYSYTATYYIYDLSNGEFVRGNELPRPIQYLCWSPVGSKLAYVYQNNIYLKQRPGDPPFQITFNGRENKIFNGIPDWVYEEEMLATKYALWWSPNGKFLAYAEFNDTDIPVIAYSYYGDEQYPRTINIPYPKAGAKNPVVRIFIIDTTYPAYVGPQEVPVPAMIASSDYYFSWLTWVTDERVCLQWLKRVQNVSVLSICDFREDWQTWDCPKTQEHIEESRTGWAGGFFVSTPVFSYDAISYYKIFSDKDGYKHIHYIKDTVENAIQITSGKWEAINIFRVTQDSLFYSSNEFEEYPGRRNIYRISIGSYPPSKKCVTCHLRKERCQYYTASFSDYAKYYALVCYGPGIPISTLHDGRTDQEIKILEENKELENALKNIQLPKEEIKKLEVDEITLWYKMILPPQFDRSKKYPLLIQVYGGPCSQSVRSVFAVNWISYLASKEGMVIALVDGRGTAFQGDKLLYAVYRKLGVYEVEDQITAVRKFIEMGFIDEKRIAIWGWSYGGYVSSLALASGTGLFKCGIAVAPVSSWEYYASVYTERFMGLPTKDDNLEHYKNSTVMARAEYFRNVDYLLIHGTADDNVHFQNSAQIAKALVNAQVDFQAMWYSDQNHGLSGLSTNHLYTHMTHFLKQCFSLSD
The experiment in a line: flow cytometry on CHO-K1-hFAPα cells. The procedure: (§2) To evaluate the cell-based binding property to human FAPα, the tested antibodies were analyzed for their binding to CHO-K1-hFAPα by FACS. A total number of 1×10⁵ CHO-K1-hFAPα cells in each well were incubated with 4-fold serial diluted antibodies starting from 3 μg/ml for 30 minutes at 4° C. in FACS buffer. After wash by FACS buffer, PE conjugated-anti-human IgG antibody was added to each well and incubated at 4° C. for 30 minutes. After wash, MFI of PE was evaluated by MACSQuant Analyzer 16.

Test [4] deals with T2, human FAPα on CHO-K1-hFAPα cells. The experiment in a line: flow cytometry on CHO-K1-hFAPα cells (MFI of PE). Also on record: unit not given beside the values. How it is done:
as §2

Test [5] concerns the target T1, human FAPα-His tag (Sino biological). The experiment in a line: ELISA, coated human FAPα-His. How it is done:
Briefly, microtiter plates were coated with human FAPα-His protein at 0.5 ug/ml in PBS, 100 μl/well at 4° C. overnight, then blocked with 150 μl/well of 1% BSA. Three-fold dilutions of tested antibodies starting from 1 μg/ml were added to each well and incubated for 1 hour at 37° C. The plates were washed with PBS/Tween and then incubated with Anti-Human IgG (H&L) (GOAT) Antibody Peroxidase Conjugated for 30 mins at 37° C. After washing, the plates were developed with TMB substrate and analyzed by spectrophotometer at OD 450 nm. […] FAP-4B9 clone from Roche was served as positive control which labeled as FAPα-BMK.

Test [6] shares this target. The experiment in a line: competitive ELISA on coated human FAPα; competitor (detected): FAP-G52-Bio. The procedure:
as §1

B1: G14 (antibody, V domains shown)
VH: QVQLLESGGGVVQPGRSLRLSCAASGFTFSSYAMHWVRQAPGKGLEWVAFISHDGNRNSYADSVRGRFTISRDNSKNTLYLQMNSLRAEDTAVYYCARDLGYYNGFSYWGQGTLVTVSA
VL: DIVMTQSPSSVSASVGDRVTITCRASQGISSWLAWYQQKPGKAPKLLIYAASSLQSGVPSRFSGSGSGTDFTLTISSLQPEDFATYYCQQANSFPPTFGPGTKVDIK
notes: Full human antibody from a Fab phage library; Tested as a mAb (detected with anti-human IgG, captured on Protein A); also called FAP-G14; FAP-G14-Bio (biotin-conjugated form)
Consider B1, for which the “OD 450 nm” value in test [1] is 0.457 OD 450 nm; in test [2], 0.293 OD 450 nm; in test [6], 0.195 OD 450 nm. In addition, the EC50 in test [3] is 0.073 ng/mL; in test [5], 4.64 ng/mL. In test [4], this molecule gave a Cmax of 515.

B2: I30 (antibody, V domains shown)
VH: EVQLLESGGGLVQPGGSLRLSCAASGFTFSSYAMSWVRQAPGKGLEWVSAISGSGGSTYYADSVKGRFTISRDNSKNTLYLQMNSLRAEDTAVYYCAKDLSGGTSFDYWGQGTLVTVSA
VL: AIRLTQSPSSVSASVGDRVTITCRASQGISSWLAWYQQKPGKAPKLLIYAASSLQSGVPSRFSGSGSGTDFTLTISSLQPEDFATYYCQQANSFPPTFGGGTKVEIK
notes: Tested as a mAb; also called 130; FAP-I30
Consider B2, for which the “OD 450 nm” value in test [1] stood at 0.219 OD 450 nm; in test [2], 0.16 OD 450 nm; in test [6] it was 0.146 OD 450 nm. The EC50 in test [3] was found to be 0.08 ng/mL; in test [5], 3.42 ng/mL. The molecule further displayed a Cmax in test [4] of 455.

B3: I37 (antibody, V domains shown)
VH: QLQLVESGGGLVQPGGSLRLSCAASGFTFSSYAMSWVRQAPGKGLEWVSAISGSGGSTYYADSVKGRFTISRDNSKNTLYLQMNSLRAEDTAVYYCARDKPWGGSFDYWGQGTLVTVSA
VL: DIQLTQSPSSLSASVGDRVTITCRASQGISSWLAWYQQKPGKAPKLLIYAASSLQSGVPSRFSGSGSGTDFTLTISSLQPEDFATYYCQQANSFPVTFGPGTKVDIK
notes: Tested as a mAb; also called FAP-I37
On to B3, for which the “OD 450 nm” value stood at 0.602 OD 450 nm in test [1], 0.314 OD 450 nm in test [2] and 0.18 OD 450 nm in test [6]. The EC50 in test [3] was determined as 0.057 ng/mL; in test [5], 5.4 ng/mL. The molecule further had a Cmax in test [4] of 465.

B4: J40 (antibody, V domains shown)
VH: EVQLLESGGGLVQPGGSLRLSCAASGFTFSSYAMSWVRQAPGKGLEWVSAISGSGGSTYYADSVKGRFTISRDNSKNTLYLQMNSLRTDDTAVYYCARDLTTSTGWESWGQGTLVTVSA
VL: NIQMTQSPSSVSASVGDRVTITCRASQGISSWLAWYQQKPGKAPKLLIYAASSLQSGVPSRFSGSGSGTDFTLTISSLQPEDFATYYCQQANSFPPTFGQGTKLEIK
notes: Tested as a mAb; also called FAP-J40; FAP-J40-Bio (biotin-conjugated form)
For B4, the “OD 450 nm” value was found to be 0.435 OD 450 nm in test [1], 0.261 OD 450 nm in test [2] and 0.206 OD 450 nm in test [6]. In addition, the EC50 in test [3] was 0.025 ng/mL; in test [5], 3.87 ng/mL. Moreover, the Cmax in test [4] was 381.
